Measured values as given in patent US20110230643A1.

Target: Toll-like receptor 5 (TLR5), constitutively expressed on Caco-2 cells (UniProt O60602)
Test: cell-based or functional assay

UniProt O60602, sequence (O60602 21-858 limits assumed): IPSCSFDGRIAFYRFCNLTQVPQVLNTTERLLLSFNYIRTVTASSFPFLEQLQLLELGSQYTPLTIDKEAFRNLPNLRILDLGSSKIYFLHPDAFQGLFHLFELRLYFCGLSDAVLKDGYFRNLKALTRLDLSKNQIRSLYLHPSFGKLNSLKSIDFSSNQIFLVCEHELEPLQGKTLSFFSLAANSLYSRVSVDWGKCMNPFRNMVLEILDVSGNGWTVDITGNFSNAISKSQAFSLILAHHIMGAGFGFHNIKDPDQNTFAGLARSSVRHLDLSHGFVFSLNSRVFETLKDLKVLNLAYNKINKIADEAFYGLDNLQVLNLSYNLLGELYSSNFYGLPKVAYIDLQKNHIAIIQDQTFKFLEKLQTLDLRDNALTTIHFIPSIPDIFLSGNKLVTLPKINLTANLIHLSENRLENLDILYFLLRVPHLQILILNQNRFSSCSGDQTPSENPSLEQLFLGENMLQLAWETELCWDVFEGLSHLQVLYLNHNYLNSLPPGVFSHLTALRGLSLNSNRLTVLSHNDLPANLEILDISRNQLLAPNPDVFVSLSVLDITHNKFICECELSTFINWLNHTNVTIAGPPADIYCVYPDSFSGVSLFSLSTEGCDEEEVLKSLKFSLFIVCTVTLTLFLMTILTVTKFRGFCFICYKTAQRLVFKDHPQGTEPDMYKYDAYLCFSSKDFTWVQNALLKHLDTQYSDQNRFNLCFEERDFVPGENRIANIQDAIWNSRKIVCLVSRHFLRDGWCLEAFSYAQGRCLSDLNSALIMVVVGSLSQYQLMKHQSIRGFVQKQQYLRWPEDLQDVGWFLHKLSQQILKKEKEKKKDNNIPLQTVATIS

## flagellin protein FliC from Salmonella enterica J341, recombinant, with C-terminal 6-histidine tag (from UniProt P06177 1-505) (ligand)
  dose at which the stimulating activity (IL-8 and MCP-1 release of Caco-2 cells) reached saturation: > 1000 ng/mL
